Source: the DeepSol protein solubility set

Assay: soluble on expression in E. coli; label from the status in PepcDB or PDB records

Sequence | soluble on expression in E. coli
MGSDKIHHHHHHMCIYCISKQVFCLSGLRFPYGFTPMGLHLRSLNMAYINKSNVSILRSLSCASISLYYSMSAAASHLEVDDPALAERCELEMGWQQPRSDHARTQLNATTTCSRNQWEWHVGLASNVNDDIREEQAEVGIKLPLNLNSHSDSNRQQDDWHSALVINLQKNLDASNELATEVFGIFGKTLSDSDVSLYANVGFTHEFNQSTQLLVGIAAAHELSSHHRVITELYQKELSETAYQFAYQHTPQQQLQLELSLGNALRGNALQLGADITFYFGH | not soluble
MKLSPATKSFIGKTVDISTFAIQWGFVPFVVYLGFKKGAEPMPNGQILPLSAMSLLWG | not soluble
MKGKMAIVISTLNNPWFVVLAETAKQRAEQLGYEATIFDSQNDTAKESAHFDAIIAAGYDAIIFNPTDADGSIANVKRAKEAGIPVFCVDRGINARGLAVAQIYSDNYYGGVLMGEYFVKFLKEKYPDAKEIPYAELLGILSAQPTWDRSNGFHSVVDQYPEFKMVAQQSAEFDRDTAYKVTEQILQAHPEIKAIWCGNDAMALGAMKACEAAGRTDIYIFGFDGAEDVINAIKEGKQIVATIMQFPKLMARLAVEWADQYLRGERSFPEIVPVTVELVTRENIDKYTAYGRKEEGSHHHHHH | soluble
MPFRNAVQTASPPTTPKQKAHHDRIHVHPFGLGTHLCQRPLPHDQTVRRGRTQAQTFRTPHDRAGGRFRADRRSCLHPRIPCRIGTRSGLGVLCHSRLPVPDFCVSMFCVAVFLAHAQQGIDKHRNAV | not soluble
MAPTNLTKKPSQYKQSSRKGKKAWRKNIDLSDVEQYMEKKIDHEITHGTSDITSLQNDALFHVDVEGDEILKNKLIKRKQIKKVLKSKEILDAVKTNSKIAALNHHKNSSGNPNKIQGVSKHELKKLMALAGRVHGESKIKNRVAKDGLVKTTAGDLWGEESNSKKQKVKLPSGIKLDVEKKDQIPEELLKKSTTSWSTASVRPSTLDIEPIAVKEFTEIPHAGKSYNPNNKAWSELINKEYKEEKAREDERIALEKYKERIRHLMETLDDNEEEESSSNEEEEEEEEENENENESTQCSGSDKEIKLSINKPVKNKKKTKYQRNKAKRHEEKVKLQQELKELRQRVKDLEEVINSEETEILSAIESDSNKVKKSKKNKKHKLGTKYSVIDERLEIKFSDELSDSLRKLKPEGNLLYDTVRKLQSSGKVETRVPVRKGRKYKQKITEKWTHKDFK | not soluble
MEQPQEEAPEVREEEEKEEVAEAEGAPELNGGPQHALPSSSYTDLSRSSSPPSLLDQLQMGCDGASCGSLNMECRVCGDKASGFHYGVHACEGCKGFFRRTIRMKLEYEKCERSCKIQKKNRNKCQYCRFQKCLALGMSHNAIRFGRMPEAEKRKLVAGLTANEGSQYNPQVADLKAFSKHIYNAYLKNFNMTKKKARSILTGKASHTAPFVIHDIETLWQAEKGLVWKQLVNGLPPYKEISVHVFYRCQCTTVETVRELTEFAKSIPSFSSLFLNDQVTLLKYGVHEAIFAMLASIVNKDGLLVANGSGFVTREFLRSLRKPFSDIIEPKFEFAVKFNALELDDSDLALFIAAIILCGGE | soluble
MGSDKIHHHHHHMINNEKYKELIKYLKSLGKVVLAFSGGVDSTFLLKASKEALGDNVKAVTILSPYIPKWEIREAEELVKELGVEHEIIKAPIIDSIKFNPEDRCYLCKTAVFSMILDAAKRQGYDCVIDGTNFDDIKDYRPGLRALKELSVKSPLLECKLTKAEIRTFSKELGLKTWDKPPYACLLTRIPYGNELKVEDFEKIERAERYMMSIGFRAIRVRCHDDLARIEVAREDRSKLFNEELLDTISENIKKCGFKYVSLDLQGYRVGSFNETIAKISDK | not soluble
MGHHHHHHSHMAAAFRKAAKSRQREHRERSQPGFRKHLGLLEKKKDYKLRADDYRKKQEYLKALRKKALEKNPDEFYYKMTRVKLQDGVHIIKETKEEVTPEQLKLMRTQDVKYIEMKRVAEAKKIERLKSELHLLDFQGKQQNKHVFFFDTKKEVEQFDVATHLQTAPELVDRVFNRPRIETLQKEKVKGVTNQTGLKRIAKERQKQYNCLTQRIEREKKLFVIAQKIQTRKDLMDKTQKVKVKKETVNSPAIYKFQSRRKR | soluble
SDLVGVASPEPGTAAAWGPSKCPWAIPQNTISCSLADVMSEQLAKELQLEEEAAVFPEVAVAEGPFITGENIDTSSDLMLAQMLQMEYDREYDAQLRREEKKFNGDSKVSISFENYRKVHPYEDSDSSEDEVDWQDTRDDPYRPAKPVPTPKKGFIGKGKDITTKHDEVVCGRKNTARMENFAPEFQVGDGIGMDLKLSNHVFNALKQHAYSEERRSARLHEKKEHSTAEKAVDPKTRLLMYKMVNSGMLETITGCISTGKESVVFHAYGGSMEDEKEDSKVIPTECAIKVFKTTLNEFKNRDKYIKDDFRFKDRFSKLNPRKIIRMWAEKEMHNLARMQRAGIPCPTVVLLKKHILVMSFIGHDQVPAPKLKEVKLNSEEMKEAYYQTLHLMRQLYHECTLVHADLSEYNMLWHAGKVWLIDVSQSVEPTHPHGLEFLFRDCRNVSQKGGVKEALSERELFNAVSGLNITADNEADFLAEIEALEKMNEDHVQKNGRKAASFLKDDGDPPLLYDE | soluble
MGSDKIHHHHHHMTISISEPTPPASLLAIKDEIRAEALKLGFSVCGFASATDAWPNGGWLREFVQAERHGAMGWMEETLERRSHPTAMWTDAKSAVVLGVNYGPDIDPLEQLADPARAAISVYAQGDDYHDVIKKRLKVLAGWMHRRFGQEVKVFVDTAPLLEKPLAQRAGLGWQGKHTNLVSRQFGSWLFLGSVLTTLDLPADDAEVDHCGSCRACLDVCPTNAFPAPRQLDARRCISYLTIELSGPIPAEFRPAMGNRIYGCDDCLAVCPWNKFASLSNEAKLVAREALRQPSLAELAVLDDAAFRALFSKNPIKRIGRDRFVRNVLYAIGNSGDAGLMAVVEPLLDDPAPVVRGAAVWAARRLLGDDAAALKRGENDESVLAEWS | not soluble
MKLIWSEESWDDYLYWQETDKRIVKKINEIIKDTRRTPFEGKGKPEPLKHNLSGFWSRRITEEHRLVYAVTDDSLLIAACRYHYLEHHHHHH | soluble
MSTAEQRMDTSEVELPNDNVNEQGNKTPRADQPESSASGARNHGEDEEVTEQVELAAMETEASDSIVDNVPKTPRRAGRPKKLPSTSTAAAESAVTPGKRGRKRKGSESVNTTINSTMNSTLNEPKTPGRKQAKLVAPLLTYDLFAPSIIGDRVLSCGEGEALGHPGRTTTKKPRKVDIFEEEGLKPLQAVAGGVHSAVLTSEGEVYMCGINEKGTVPAEGVEKEGSTDEFAKVKFEEDIEKEGKIVMLAAGASFTAALTDQGSVIAWGNLRNSNGNVDVHPLLHKMQEAPVVIVHQAKRKIVKIAAGENHLVMLDEKGCLLTFGDGEMGQLGRSSRTKTIRSKYMCDESGDHLLVPLRFKHKGKFFDVVAKNVFASGFWTIVHGEDGKYYAFGLNNYAQLGIKVDEADVGQDGQDNRELRVFLPAEAPAFGAERTFVNIEGVQHVVILGSDGKVFAMGKNTDNALGLGNWTGKDDQQHWLYDTIQEIEFDSKIVGVSAKLATSIAWSEDGTAYAWGFDTTGQLGLGLKDEDEKMVSKPEEISSAHLDGYSIIGASISDQHTLIIAKKN | soluble
MKTNTIITIGRQFGSAGREIGYQIADYFGIKLYDKEMLSRAAKESGICEEIFETHDEKPTNSFLYSLVMDTYSMGYSGGSYSDMPINHKVFLAQFDAIKKIADEGPCILVGRCADYALESYDNVVNVFIHADLDARIRRIARIYNLTDAKAKDMIIKTDKKRASYYNYYTNKKWSDSESYELCLSSSELGIEGTAKAIEQYVMLKEQIQRDDKIL | not soluble
MASKYAVKLKTDFDNPRWIKRHKHMFDFLDINGNGKITLDEIVSKASDDICAKLEATPEQTKRHQVCVEAFFRGCGMEYGKEIAFPQFLDGWKQLATSELKKWARNEPTLIREWGDAVFDIFDKDGSGTITLDEWKAYGKISGISPSQEDCESTFRHCDLDNAGDLDVDEMTRQHLGFWYTLDPEADGLYGNGVP | soluble
MSNEISDRKVSDTLKDKKPMSLLLLGTDTGEFGRSYKGRTDTIMMMVINPKTNKTTVVSLPRDMKVNLPDYPDYSPAKINAAYTYGGVDETVKTIKKYFNVPTDAYVMVNMGGLEKAIDQVGGVTVKSPLTFDYEGYHFTKGVTYHMNGKKALAFSRMRYDDPRGDYGRQERQRLVIMALLKSSISYKTVVNQTFLNSISKQTMTNLTFDNMVALAQNYRHATDNVTTDHAQGQGDWENGVAYESVSQAECQRISNKLRAALGLKPETLKTGELEHHHHHH | soluble
VTAHSIARRFGAPIETLARAADRIGEGDFDVTLPMTNVAEVGQLTRRFGLMAEALRQYRKTSVEEVLSGERRLQAVLDSIDDGLVIFDNQGRIEHANPVAIRQLFVSNDPHGKRIDEILSDVDVQEAVEKALLGEVQDEAMPDLVVDVAGESRLLAWSLYPVTHPGGHSVGAVLVVRDVTEQRAFERVRSEFVLRASHELRTPVTGMQMAFSLLRERLDFPAESREADLIQTVDEEMSRLVLLINDLLNFSRYQTGMQKLELASCDLVDLLTQAQQRFIPKGEARRVSLQLELGDELPRLQLDRLQIERVIDNLLENALRHSSEGGQIHLQARRQGDRVLIAVEDNGEGIPFSQQGRIFEPFVQVGRKKGGAGLGLALCKEIIQLHGGRIAVRSQPGQGARFYMLLP | not soluble
MAEKKLLLGDEAIALGAIHAGISGVYAYPGTPSTEITEFIQNNRLAKERKLHSTWCTNEKTAMEAALGMSYAGKRALVCMKHVGMNVAADAFVNSAITGVNGGLVVLAADDPSMHSSQNEQDSRFYGKFAMIPMLEPSSQQEAYDMMDYAYTLSEKLKLPVLMRVVTRLAHSRAGVEVADIREENQLNPD | soluble
MTVSPVPSPKGRVLIAGATGFIGQFVATASLDAHRPTYILARPGPRSPSKAKIFKALEDKGAIIVYGLINEQEAMEKILKEHEIDIVVSTVGGESILDQIALVKAMKAVGTIKRFLPSEFGHDVNRADPVEPGLNMYREKRRVRQLVEESGIPFTYICCNSIASWPYYNNIHPSEVLPPTDFFQIYGDGNVKAYFVAGTDIGKFTMKTVDDVRTLNKSVHFRPSCNCLNINELASVWEKKIGRTLPRVTVTEDDLLAAAGENIIPQSVVAAFTHDIFIKGCQVNFSIDGPEDVEVTTLYPEDSFRTVEECFGEYIVKMEEKQPTADSAIANTGPVVGMRQVTATCA | soluble
MKLAVAGKGGVGKTTVAAGLIKIMASDYDKIYAVDGDPDSCLGQTLGLSIEEAYAITPLIEMKDEIREKTGDGGLLILNPKVDGDLDKYGRYIDDKIFLIRMGEIKKGGSQCYCRENSFLGSVVSALFLDKKEAVVMDMGAGIEHLTRGTAKAVDMMIAVIEPNLNSIKTGLNIEKLAGDLGIKKVRYVINKVRNIKEEKLIKKHLPEDKILGIIPYNELFIELSLKGEEIWQSTNPAFVNLHDIYQKLRLEVG | soluble
SNAESAAPQVHLSILATTDIHANMMDYDYYSDKETADFGLARTAQLIQKHREQNPNTLLVDNGDLIQGNPLGEYAVKYQKDDIISGTKTHPIISVMNALKYDAGTLGNHEFNYGLDFLDGTIKGADFPIVNANVKTTSGENRYTPYVINEKTLIDENGNEQKVKVGYIGFVPPQIMTWDKKNLEGQVQVQDIVESANETIPKMKAEGADVIIALAHTGIEKQAQSSGAENAVFDLATKTKGIDAIISGHQHGLFPSAEYAGVAQFNVEKGTINGIPVVMPSSWGKYLGVIDLKLEKADGSWKVADSKGSIESIAGNVTSRNETVTNTIQQTHQNTLEYVRK | soluble
